Patent US20140087995A1 (published 2014)
Numbered stars: 1 amine (or outer) side, 2 acyl side, 3 side chain; on linkers, the order of the positions; unused ones are H or OH. Bridge positions count the residues as written; N and C are the ends. Side chains are listed from the residue outwards. Ends that are not written are not given here. * marks the point of attachment. C20 diacid = O=C(O)CCCCCCCCCCCCCCCCCCC(=O)*; γGlu = O=C(O)[C@H](CCC(=O)[*:2])N[*:1]; AEEA = NCCOCCOCC(=O)O

T1: human amylin receptor (amylin 3(a) receptor: human calcitonin receptor with RAMP-3) (human, UniProt P30988 25-474; O60896 24-148)
T1 construct: whole, on cells; also called hAmylin-R; hAmylinR
T1 sequence (looked up) 1: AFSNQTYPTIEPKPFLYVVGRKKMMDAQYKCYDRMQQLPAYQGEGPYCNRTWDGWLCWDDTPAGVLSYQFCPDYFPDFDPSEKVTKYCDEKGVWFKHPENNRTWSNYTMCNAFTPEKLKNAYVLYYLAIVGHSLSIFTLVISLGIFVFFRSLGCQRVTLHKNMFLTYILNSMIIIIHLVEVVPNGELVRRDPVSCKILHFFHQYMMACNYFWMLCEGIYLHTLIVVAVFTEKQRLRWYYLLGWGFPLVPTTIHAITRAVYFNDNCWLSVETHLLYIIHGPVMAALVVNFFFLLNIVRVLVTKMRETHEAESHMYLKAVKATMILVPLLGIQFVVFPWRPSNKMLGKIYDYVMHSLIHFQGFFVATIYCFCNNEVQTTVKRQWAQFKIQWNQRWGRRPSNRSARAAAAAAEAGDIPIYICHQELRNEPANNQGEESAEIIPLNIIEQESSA
T1 sequence (looked up) 2: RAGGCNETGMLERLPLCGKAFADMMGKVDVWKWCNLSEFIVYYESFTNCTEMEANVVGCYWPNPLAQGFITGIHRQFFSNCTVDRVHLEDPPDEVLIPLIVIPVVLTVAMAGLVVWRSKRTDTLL

B1: N^ε1-[2-[2-[2-[[(4S)-4-carboxy-4-(19-carboxynonadecanoylamino)butanoyl]amino]ethoxy]ethoxy]acetyl]-[Arg17,Pro21,Pro27,Pro31]-h-amylin (peptide)
peptide: K([AEEA-γGlu-C20 diacid])CNTATCATQRLANFLRHSSPNFGAIPSSTPVGSNTY-NH2
modifications: disulfide 2-7; N-terminus assumed
SMILES: CC[C@H](C)[C@H](NC(=O)[C@H](C)NC(=O)CNC(=O)[C@H](Cc1ccccc1)NC(=O)[C@H](CC(N)=O)NC(=O)[C@@H]1CCCN1C(=O)[C@H](CO)NC(=O)[C@H](CO)NC(=O)[C@H](Cc1c[nH]cn1)NC(=O)[C@H](CCCNC(=N)N)NC(=O)[C@H](CC(C)C)NC(=O)[C@H](Cc1ccccc1)NC(=O)[C@H](CC(N)=O)NC(=O)[C@H](C)NC(=O)[C@H](CC(C)C)NC(=O)[C@H](CCCNC(=N)N)NC(=O)[C@H](CCC(N)=O)NC(=O)[C@@H](NC(=O)[C@H](C)NC(=O)[C@@H]1CSSC[C@H](NC(=O)[C@@H](N)CCCCNC(=O)COCCOCCNC(=O)CC[C@H](NC(=O)CCCCCCCCCCCCCCCCCCC(=O)O)C(=O)O)C(=O)N[C@@H](CC(N)=O)C(=O)N[C@@H]([C@@H](C)O)C(=O)N[C@@H](C)C(=O)N[C@@H]([C@@H](C)O)C(=O)N1)[C@@H](C)O)C(=O)N1CCC[C@H]1C(=O)N[C@@H](CO)C(=O)N[C@@H](CO)C(=O)N[C@H](C(=O)N1CCC[C@H]1C(=O)N[C@H](C(=O)NCC(=O)N[C@@H](CO)C(=O)N[C@@H](CC(N)=O)C(=O)N[C@H](C(=O)N[C@@H](Cc1ccc(O)cc1)C(N)=O)[C@@H](C)O)C(C)C)[C@@H](C)O
notes: also called 49; compound 49
B2: N^ε1-[2-[2-[2-[[(4S)-4-carboxy-4-(19-carboxynonadecanoylamino)butanoyl]amino]ethoxy]ethoxy]acetyl]-[Arg17,Pro21,Pro27,Pro34,His35]-h-amylin (peptide)
peptide: K([AEEA-γGlu-C20 diacid])CNTATCATQRLANFLRHSSPNFGAIPSSTNVGPHTY-NH2
modifications: disulfide 2-7; N-terminus assumed
SMILES: CC[C@H](C)[C@H](NC(=O)[C@H](C)NC(=O)CNC(=O)[C@H](Cc1ccccc1)NC(=O)[C@H](CC(N)=O)NC(=O)[C@@H]1CCCN1C(=O)[C@H](CO)NC(=O)[C@H](CO)NC(=O)[C@H](Cc1c[nH]cn1)NC(=O)[C@H](CCCNC(=N)N)NC(=O)[C@H](CC(C)C)NC(=O)[C@H](Cc1ccccc1)NC(=O)[C@H](CC(N)=O)NC(=O)[C@H](C)NC(=O)[C@H](CC(C)C)NC(=O)[C@H](CCCNC(=N)N)NC(=O)[C@H](CCC(N)=O)NC(=O)[C@@H](NC(=O)[C@H](C)NC(=O)[C@@H]1CSSC[C@H](NC(=O)[C@@H](N)CCCCNC(=O)COCCOCCNC(=O)CC[C@H](NC(=O)CCCCCCCCCCCCCCCCCCC(=O)O)C(=O)O)C(=O)N[C@@H](CC(N)=O)C(=O)N[C@@H]([C@@H](C)O)C(=O)N[C@@H](C)C(=O)N[C@@H]([C@@H](C)O)C(=O)N1)[C@@H](C)O)C(=O)N1CCC[C@H]1C(=O)N[C@@H](CO)C(=O)N[C@@H](CO)C(=O)N[C@H](C(=O)N[C@@H](CC(N)=O)C(=O)N[C@H](C(=O)NCC(=O)N1CCC[C@H]1C(=O)N[C@@H](Cc1c[nH]cn1)C(=O)N[C@H](C(=O)N[C@@H](Cc1ccc(O)cc1)C(N)=O)[C@@H](C)O)C(C)C)[C@@H](C)O
notes: also called 58; compound 58
B3: N^ε1-[2-[2-[2-[[(4S)-4-carboxy-4-(19-carboxynonadecanoylamino)butanoyl]amino]ethoxy]ethoxy]acetyl]-[His14,Arg17,Pro21,Pro27,His34]-h-amylin (peptide)
peptide: K([AEEA-γGlu-C20 diacid])CNTATCATQRLAHFLRHSSPNFGAIPSSTNVGHNTY-NH2
modifications: disulfide 2-7; N-terminus assumed
SMILES: CC[C@H](C)[C@H](NC(=O)[C@H](C)NC(=O)CNC(=O)[C@H](Cc1ccccc1)NC(=O)[C@H](CC(N)=O)NC(=O)[C@@H]1CCCN1C(=O)[C@H](CO)NC(=O)[C@H](CO)NC(=O)[C@H](Cc1c[nH]cn1)NC(=O)[C@H](CCCNC(=N)N)NC(=O)[C@H](CC(C)C)NC(=O)[C@H](Cc1ccccc1)NC(=O)[C@H](Cc1c[nH]cn1)NC(=O)[C@H](C)NC(=O)[C@H](CC(C)C)NC(=O)[C@H](CCCNC(=N)N)NC(=O)[C@H](CCC(N)=O)NC(=O)[C@@H](NC(=O)[C@H](C)NC(=O)[C@@H]1CSSC[C@H](NC(=O)[C@@H](N)CCCCNC(=O)COCCOCCNC(=O)CC[C@H](NC(=O)CCCCCCCCCCCCCCCCCCC(=O)O)C(=O)O)C(=O)N[C@@H](CC(N)=O)C(=O)N[C@@H]([C@@H](C)O)C(=O)N[C@@H](C)C(=O)N[C@@H]([C@@H](C)O)C(=O)N1)[C@@H](C)O)C(=O)N1CCC[C@H]1C(=O)N[C@@H](CO)C(=O)N[C@@H](CO)C(=O)N[C@H](C(=O)N[C@@H](CC(N)=O)C(=O)N[C@H](C(=O)NCC(=O)N[C@@H](Cc1c[nH]cn1)C(=O)N[C@@H](CC(N)=O)C(=O)N[C@H](C(=O)N[C@@H](Cc1ccc(O)cc1)C(N)=O)[C@@H](C)O)C(C)C)[C@@H](C)O
notes: also called 80; compound 80
B4: N^ε1-[2-[2-[2-[[(4S)-4-carboxy-4-(19-carboxynonadecanoylamino)butanoyl]amino]ethoxy]ethoxy]acetyl]-[His14,Arg17,Pro21,Pro27,Arg34]-h-amylin (peptide)
peptide: K([AEEA-γGlu-C20 diacid])CNTATCATQRLAHFLRHSSPNFGAIPSSTNVGRNTY-NH2
modifications: disulfide 2-7; N-terminus assumed
SMILES: CC[C@H](C)[C@H](NC(=O)[C@H](C)NC(=O)CNC(=O)[C@H](Cc1ccccc1)NC(=O)[C@H](CC(N)=O)NC(=O)[C@@H]1CCCN1C(=O)[C@H](CO)NC(=O)[C@H](CO)NC(=O)[C@H](Cc1c[nH]cn1)NC(=O)[C@H](CCCNC(=N)N)NC(=O)[C@H](CC(C)C)NC(=O)[C@H](Cc1ccccc1)NC(=O)[C@H](Cc1c[nH]cn1)NC(=O)[C@H](C)NC(=O)[C@H](CC(C)C)NC(=O)[C@H](CCCNC(=N)N)NC(=O)[C@H](CCC(N)=O)NC(=O)[C@@H](NC(=O)[C@H](C)NC(=O)[C@@H]1CSSC[C@H](NC(=O)[C@@H](N)CCCCNC(=O)COCCOCCNC(=O)CC[C@H](NC(=O)CCCCCCCCCCCCCCCCCCC(=O)O)C(=O)O)C(=O)N[C@@H](CC(N)=O)C(=O)N[C@@H]([C@@H](C)O)C(=O)N[C@@H](C)C(=O)N[C@@H]([C@@H](C)O)C(=O)N1)[C@@H](C)O)C(=O)N1CCC[C@H]1C(=O)N[C@@H](CO)C(=O)N[C@@H](CO)C(=O)N[C@H](C(=O)N[C@@H](CC(N)=O)C(=O)N[C@H](C(=O)NCC(=O)N[C@@H](CCCNC(=N)N)C(=O)N[C@@H](CC(N)=O)C(=O)N[C@H](C(=O)N[C@@H](Cc1ccc(O)cc1)C(N)=O)[C@@H](C)O)C(C)C)[C@@H](C)O
notes: also called 84; compound 84
B5: N^ε1-[2-[2-[2-[[(4S)-4-carboxy-4-(19-carboxynonadecanoylamino)butanoyl]amino]ethoxy]ethoxy]acetyl]-[Gly14,Arg17,Pro21,Pro27,Pro31]-h-amylin (peptide)
peptide: K([AEEA-γGlu-C20 diacid])CNTATCATQRLAGFLRHSSPNFGAIPSSTPVGSNTY-NH2
modifications: disulfide 2-7; N-terminus assumed
SMILES: CC[C@H](C)[C@H](NC(=O)[C@H](C)NC(=O)CNC(=O)[C@H](Cc1ccccc1)NC(=O)[C@H](CC(N)=O)NC(=O)[C@@H]1CCCN1C(=O)[C@H](CO)NC(=O)[C@H](CO)NC(=O)[C@H](Cc1c[nH]cn1)NC(=O)[C@H](CCCNC(=N)N)NC(=O)[C@H](CC(C)C)NC(=O)[C@H](Cc1ccccc1)NC(=O)CNC(=O)[C@H](C)NC(=O)[C@H](CC(C)C)NC(=O)[C@H](CCCNC(=N)N)NC(=O)[C@H](CCC(N)=O)NC(=O)[C@@H](NC(=O)[C@H](C)NC(=O)[C@@H]1CSSC[C@H](NC(=O)[C@@H](N)CCCCNC(=O)COCCOCCNC(=O)CC[C@H](NC(=O)CCCCCCCCCCCCCCCCCCC(=O)O)C(=O)O)C(=O)N[C@@H](CC(N)=O)C(=O)N[C@@H]([C@@H](C)O)C(=O)N[C@@H](C)C(=O)N[C@@H]([C@@H](C)O)C(=O)N1)[C@@H](C)O)C(=O)N1CCC[C@H]1C(=O)N[C@@H](CO)C(=O)N[C@@H](CO)C(=O)N[C@H](C(=O)N1CCC[C@H]1C(=O)N[C@H](C(=O)NCC(=O)N[C@@H](CO)C(=O)N[C@@H](CC(N)=O)C(=O)N[C@H](C(=O)N[C@@H](Cc1ccc(O)cc1)C(N)=O)[C@@H](C)O)C(C)C)[C@@H](C)O
notes: also called 71; compound 71
B6: N^ε1-[2-[2-[2-[[(4S)-4-carboxy-4-(19-carboxynonadecanoylamino)butanoyl]amino]ethoxy]ethoxy]acetyl]-[Arg17,Pro21,Pro27,Pro34]-h-amylin (peptide)
peptide: K([AEEA-γGlu-C20 diacid])CNTATCATQRLANFLRHSSPNFGAIPSSTNVGPNTY-NH2
modifications: disulfide 2-7; N-terminus assumed
SMILES: CC[C@H](C)[C@H](NC(=O)[C@H](C)NC(=O)CNC(=O)[C@H](Cc1ccccc1)NC(=O)[C@H](CC(N)=O)NC(=O)[C@@H]1CCCN1C(=O)[C@H](CO)NC(=O)[C@H](CO)NC(=O)[C@H](Cc1c[nH]cn1)NC(=O)[C@H](CCCNC(=N)N)NC(=O)[C@H](CC(C)C)NC(=O)[C@H](Cc1ccccc1)NC(=O)[C@H](CC(N)=O)NC(=O)[C@H](C)NC(=O)[C@H](CC(C)C)NC(=O)[C@H](CCCNC(=N)N)NC(=O)[C@H](CCC(N)=O)NC(=O)[C@@H](NC(=O)[C@H](C)NC(=O)[C@@H]1CSSC[C@H](NC(=O)[C@@H](N)CCCCNC(=O)COCCOCCNC(=O)CC[C@H](NC(=O)CCCCCCCCCCCCCCCCCCC(=O)O)C(=O)O)C(=O)N[C@@H](CC(N)=O)C(=O)N[C@@H]([C@@H](C)O)C(=O)N[C@@H](C)C(=O)N[C@@H]([C@@H](C)O)C(=O)N1)[C@@H](C)O)C(=O)N1CCC[C@H]1C(=O)N[C@@H](CO)C(=O)N[C@@H](CO)C(=O)N[C@H](C(=O)N[C@@H](CC(N)=O)C(=O)N[C@H](C(=O)NCC(=O)N1CCC[C@H]1C(=O)N[C@@H](CC(N)=O)C(=O)N[C@H](C(=O)N[C@@H](Cc1ccc(O)cc1)C(N)=O)[C@@H](C)O)C(C)C)[C@@H](C)O
notes: also called 50; compound 50

Target: T1, human amylin receptor (amylin 3(a) …)
Experiment: SPA displacement of 125I-rat amylin, hAmylin 3(a) receptor membranes
Summary of the method: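 One-site competition analysis of SPA counts yielded IC₅₀ as a measure of affinity. Membranes were at 35 ng/μL final; incubation was 120 min at 25° C, pH 7.4.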

Row | Binder | IC50
1 | B1 | 1.19 nM
2 | B2 | 0.088 nM
3 | B3 | 0.29 nM
4 | B4 | 0.743 nM
5 | B5 | 0.048 nM
6 | B6 | 0.038 nM
